In series [1] the target is HELB (DNA helicase B);Human RPA (hRPA) (Homo sapiens;Homo sapiens, UniProt Q8NG08;P27694;P15927;P35244 1-1087;1-616;1-270;1-121, |). Put plainly: EMSA; HELB supershifts the human RPA-DNA complex; EMSA: 2.5 nM DNA (5 nM in Fig. S1F); PIFE: 2 nM DNA for Kd; buffer, salt, pH and temperature not in the supplied material; optical tweezers at room temperature. As to conditions: protein: recombinant;recombinant; copies: 1;1;1;1; label: 5'-Cy5; single strand. (A gel shift assay detects complexes by their altered migration in electrophoresis.)

For the next series, the target named is Human RPA (hRPA) (Homo sapiens, UniProt P27694;P15927;P35244 1-616;1-270;1-121). Put plainly: EMSA; human RPA alone; EMSA: 2.5 nM DNA (5 nM in Fig. S1F); PIFE: 2 nM DNA for Kd; buffer, salt, pH and temperature not in the supplied material; optical tweezers at room temperature. As to conditions: protein: recombinant; copies: 1;1;1; label: 5'-Cy5; single strand.

Another series has as its target HELB (DNA helicase B) (Homo sapiens, UniProt Q8NG08 1-1087). Put plainly: PIFE fluorescence; EMSA: 2.5 nM DNA (5 nM in Fig. S1F); PIFE: 2 nM DNA for Kd; buffer, salt, pH and temperature not in the supplied material; optical tweezers at room temperature. As to conditions: protein: recombinant; label: 3'-Cy3; single strand.

Sequence of HELB (DNA helicase B);Human RPA (hRPA) (Q8NG08 whole entry, chain 1 of 4): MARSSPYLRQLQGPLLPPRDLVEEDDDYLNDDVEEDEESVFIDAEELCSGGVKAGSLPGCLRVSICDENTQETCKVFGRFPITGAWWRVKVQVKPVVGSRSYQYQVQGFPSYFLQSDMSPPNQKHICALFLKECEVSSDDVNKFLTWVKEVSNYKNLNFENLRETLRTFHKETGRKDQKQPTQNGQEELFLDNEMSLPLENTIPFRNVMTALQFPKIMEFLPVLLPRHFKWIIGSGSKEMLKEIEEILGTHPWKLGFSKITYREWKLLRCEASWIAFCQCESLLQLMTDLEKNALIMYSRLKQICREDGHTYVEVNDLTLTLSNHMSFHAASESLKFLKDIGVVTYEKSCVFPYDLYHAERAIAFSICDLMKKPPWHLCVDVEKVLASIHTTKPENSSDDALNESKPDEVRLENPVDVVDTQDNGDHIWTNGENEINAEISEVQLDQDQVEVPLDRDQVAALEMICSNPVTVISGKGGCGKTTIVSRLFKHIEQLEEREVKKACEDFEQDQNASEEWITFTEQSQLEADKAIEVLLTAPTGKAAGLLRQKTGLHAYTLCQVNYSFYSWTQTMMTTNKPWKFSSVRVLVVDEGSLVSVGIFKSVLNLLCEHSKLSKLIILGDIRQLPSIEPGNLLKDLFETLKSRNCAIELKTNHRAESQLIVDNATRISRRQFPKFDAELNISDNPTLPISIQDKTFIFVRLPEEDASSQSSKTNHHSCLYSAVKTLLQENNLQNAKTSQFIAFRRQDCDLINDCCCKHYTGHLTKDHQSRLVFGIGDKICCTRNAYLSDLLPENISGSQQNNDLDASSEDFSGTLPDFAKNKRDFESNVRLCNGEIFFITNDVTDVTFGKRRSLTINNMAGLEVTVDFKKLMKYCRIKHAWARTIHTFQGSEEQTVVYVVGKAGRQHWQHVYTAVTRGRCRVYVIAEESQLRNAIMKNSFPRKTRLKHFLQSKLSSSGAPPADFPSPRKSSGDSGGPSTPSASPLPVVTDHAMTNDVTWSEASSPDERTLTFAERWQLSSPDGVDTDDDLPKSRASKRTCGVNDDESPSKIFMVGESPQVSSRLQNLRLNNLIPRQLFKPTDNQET
Sequence of HELB (DNA helicase B);Human RPA (hRPA) (P27694 whole entry, chain 2 of 4): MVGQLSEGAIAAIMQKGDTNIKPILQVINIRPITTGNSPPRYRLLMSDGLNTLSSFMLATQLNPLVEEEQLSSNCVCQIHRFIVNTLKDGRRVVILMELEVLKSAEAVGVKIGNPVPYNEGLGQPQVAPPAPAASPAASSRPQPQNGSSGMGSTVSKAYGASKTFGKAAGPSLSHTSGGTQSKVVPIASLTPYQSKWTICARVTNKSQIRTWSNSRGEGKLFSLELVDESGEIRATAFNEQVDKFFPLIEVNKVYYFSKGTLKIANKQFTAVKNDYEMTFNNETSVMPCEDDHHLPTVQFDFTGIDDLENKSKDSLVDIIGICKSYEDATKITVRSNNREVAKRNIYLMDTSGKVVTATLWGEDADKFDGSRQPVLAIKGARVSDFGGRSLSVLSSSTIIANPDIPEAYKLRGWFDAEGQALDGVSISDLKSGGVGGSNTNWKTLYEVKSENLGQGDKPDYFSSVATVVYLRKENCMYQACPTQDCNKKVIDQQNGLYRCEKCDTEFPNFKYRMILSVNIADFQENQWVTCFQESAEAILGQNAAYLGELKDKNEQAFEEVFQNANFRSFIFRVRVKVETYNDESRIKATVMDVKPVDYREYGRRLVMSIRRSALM
Sequence of HELB (DNA helicase B);Human RPA (hRPA) (P15927 whole entry, chain 3 of 4): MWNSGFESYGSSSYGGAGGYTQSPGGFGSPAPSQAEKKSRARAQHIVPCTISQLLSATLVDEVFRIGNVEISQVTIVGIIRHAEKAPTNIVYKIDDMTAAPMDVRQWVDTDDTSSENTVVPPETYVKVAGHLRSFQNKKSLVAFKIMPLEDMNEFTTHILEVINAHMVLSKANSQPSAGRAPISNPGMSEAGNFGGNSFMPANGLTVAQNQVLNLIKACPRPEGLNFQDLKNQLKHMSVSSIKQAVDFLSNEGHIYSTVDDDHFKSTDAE
Sequence of HELB (DNA helicase B);Human RPA (hRPA) (P35244 whole entry, chain 4 of 4): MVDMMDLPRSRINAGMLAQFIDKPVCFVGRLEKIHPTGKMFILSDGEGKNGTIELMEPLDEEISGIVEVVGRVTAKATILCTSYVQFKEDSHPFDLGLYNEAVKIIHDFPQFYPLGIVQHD
Sequence of HELB (DNA helicase B) (Q8NG08 whole entry): as the sequence (Q8NG08 whole entry, chain 1 of 4) above
Sequence of Human RPA (hRPA) (P27694 whole entry, chain 1 of 3): as the sequence (P27694 whole entry, chain 2 of 4) above
Sequence of Human RPA (hRPA) (P15927 whole entry, chain 2 of 3): as the sequence (P15927 whole entry, chain 3 of 4) above
Sequence of Human RPA (hRPA) (P35244 whole entry, chain 3 of 3): as the sequence (P35244 whole entry, chain 4 of 4) above

B1: EMSA 25mer (ssDNA)
DNA: GCTTGCTAGGACGGATCGCTCGAGG
Take B1: the binding result (in series [1]; with Human RPA (hRPA)) was “binds” throughout.

B2: poly(dT) 30mer (ssDNA)
DNA: TTTTTTTTTTTTTTTTTTTTTTTTTTTTTT
Broadly, the Kd is the equilibrium constant for the complex coming apart. As for B2, in the series with HELB (DNA helicase B), the dissociation constant (Kd) is roughly 5 nM.
